Measurements reported in paper PMC2787660.
Blank lines part the entries; values can stand above or below the substance they belong to.

Legend:
Test in all cases: cross-linking
apoA-I L(46,47)D (human) = target: apoA-I L(46,47)D (human)
apoA-I E198K (human) = target: apoA-I E198K (human)
apoA-I L(42,44)D (human) = target: apoA-I L(42,44)D (human)

- stoichiometry N (apoA-I L(46,47)D (human)): 2
Substance: apoA-I L(46,47)D (natural protein)

- stoichiometry N (apoA-I E198K (human)): 2
Substance: apoA-I E198K (natural protein)

- stoichiometry N (apoA-I L(42,44)D (human)): 2
Substance: apoA-I L(42,44)D (natural protein)
